Experimental data as given in patent US20260242419A1, “A CYCLIC PEPTIDE FOR TRAPPING INTERLEUKIN-1 BETA” (Merck Sharp & Dohme LLC, priority 2023, published 2026).
Starred links: 1 amine or outer side, 2 acyl side, 3 side chain; linkers in the order of their positions; H or OH if unused. Non-standard residues stand in square brackets, D forms with d. Trp4Az = (2S)-2-amino-3-(1H-pyrrolo[3,2-b]pyridin-3-yl)propanoic acid, O=C([C@H](Cc1c[nH]c2cccnc12)N[*:1])[*:2]; Trp(4-Cl)(βS-Me) = C[C@@H](c1c[nH]c2cccc(Cl)c12)[C@H](N)C(=O)O; dPro(4R-(4-pyridylmethyl)) = O=C(O)[C@H]1C[C@@H](Cc2ccncc2)CN1; Ala(piperidin-4-yl) = O=C([C@H](CC1CCN([*:3])CC1)N[*:1])[*:2]; dPro(3S-(4-Br-benzyl)) = O=C(O)[C@@H]1NCC[C@@H]1Cc1ccc(Br)cc1; Trp(βS-Me,4-F) = C[C@@H](c1c[nH]c2cccc(F)c12)[C@H](N)C(=O)O; Bip(4'-COOH) = N[C@@H](Cc1ccc(-c2ccc(C(=O)O)cc2)cc1)C(=O)O; Ala(1-bicyclo(1.1.1)pentyl) = N[C@@H](CC12CC(C1)C2)C(=O)O; dPro(4R-Bzl(4-F)) = O=C(O)[C@H]1C[C@@H](Cc2ccc(F)cc2)CN1; 1Nal(3S-Me) = C[C@@H](c1cccc2ccccc12)[C@H](N)C(=O)O; Ala(morpholin-4-yl) = N[C@@H](CN1CCOCC1)C(=O)O; Ala(piperazin-1-yl) = N[C@@H](CN1CCNCC1)C(=O)O; Ala(pyrimidin-5-yl) = N[C@@H](Cc1cncnc1)C(=O)O; Phe(4-COOH) = N[C@@H](Cc1ccc(C(=O)O)cc1)C(=O)O; Pro(cis-4-F) = O=C(O)[C@@H]1C[C@H](F)CN1; cisHyp = O=C(O)[C@@H]1C[C@H](O)CN1; d(αMeD) = C[C@@](N)(CC(=O)O)C(=O)O; 4Pal = N[C@@H](Cc1ccncc1)C(=O)O; d(αMeS) = C[C@@](N)(CO)C(=O)O; Cba = N[C@@H](CC1CCC1)C(=O)O; αMeK = C[C@](N)(CCCCN)C(=O)O; hSer = N[C@@H](CCO)C(=O)O; Orn = NCCC[C@H](N)C(=O)O; Dab = NCC[C@H](N)C(=O)O; Dap = NC[C@H](N)C(=O)O; Aib = CC(C)(N)C(=O)O

What follows are binders tested against Recombinant human IL-1β (BioLegend 579404) (human, UniProt P01584 117-269) (assay: cell-based or functional assay).

Row | MRC5 IC50 [nM] | Binder
1 | 0.019 | cyclo([Bip(4'-COOH)][4Pal][Phe(4-COOH)]G[Pro(cis-4-F)][Trp(βS-Me,4-F)][Aib]EW[Aib][Ala(pyrimidin-5-yl)]Q[Dap]G[dPro(3S-(4-Br-benzyl))]) (ring closure inferred) [SEQ ID NO: 150]
2 | 0.011 | cyclo([Bip(4'-COOH)][4Pal][Phe(4-COOH)]G[Pro(cis-4-F)][Trp(βS-Me,4-F)][Aib]SW[d(αMeD)][Ala(pyrimidin-5-yl)]Q[Dab]G[dPro(4R-(4-pyridylmethyl))]) (ring closure inferred) [SEQ ID NO: 154]
3 | 0.039 | cyclo([Bip(4'-COOH)][Cba][Phe(4-COOH)]G[cisHyp][Trp(βS-Me,4-F)][Aib]SW[d(αMeD)][Ala(pyrimidin-5-yl)]Q[Dab]G[dPro(4R-(4-pyridylmethyl))]) (ring closure inferred) [SEQ ID NO: 164]
4 | 0.011 | cyclo([Bip(4'-COOH)][Ala(1-bicyclo(1.1.1)pentyl)][Phe(4-COOH)]G[Pro(cis-4-F)][Trp(βS-Me,4-F)][Aib]SW[d(αMeD)][Ala(pyrimidin-5-yl)]Q[Dab]G[dPro(4R-(4-pyridylmethyl))]) (ring closure inferred) [SEQ ID NO: 155]
5 | 0.03 | cyclo([Bip(4'-COOH)][Cba][Phe(4-COOH)]G[Pro(cis-4-F)][Trp(βS-Me,4-F)][Aib]SW[Aib][Ala(pyrimidin-5-yl)]Q[Dab]G[dPro(4R-(4-pyridylmethyl))]) (ring closure inferred) [SEQ ID NO: 163]
6 | 0.013 | cyclo([Bip(4'-COOH)][Ala(1-bicyclo(1.1.1)pentyl)][Phe(4-COOH)]G[Pro(cis-4-F)][Trp(βS-Me,4-F)][Aib]SW[Aib][Ala(morpholin-4-yl)]Q[Dab]G[dPro(4R-Bzl(4-F))]) (ring closure inferred) [SEQ ID NO: 167]
7 | 0.038 | cyclo([Bip(4'-COOH)][Ala(1-bicyclo(1.1.1)pentyl)][Phe(4-COOH)]G[cisHyp][Trp(βS-Me,4-F)][Aib]SW[d(αMeD)][Ala(pyrimidin-5-yl)]QSG[dPro(4R-(4-pyridylmethyl))]) (ring closure inferred) [SEQ ID NO: 157]
8 | 0.018 | cyclo([Bip(4'-COOH)][Ala(1-bicyclo(1.1.1)pentyl)][Phe(4-COOH)]G[Pro(cis-4-F)][Trp(βS-Me,4-F)][Aib]SW[Aib][Ala(piperazin-1-yl)]Q[Dab]G[dPro(4R-Bzl(4-F))]) (ring closure inferred) [SEQ ID NO: 168]
9 | 0.013 | cyclo([Bip(4'-COOH)][4Pal][Phe(4-COOH)]G[cisHyp][Trp(βS-Me,4-F)][Aib]SW[d(αMeD)][Ala(pyrimidin-5-yl)]Q[Dab]G[dPro(4R-(4-pyridylmethyl))]) (ring closure inferred) [SEQ ID NO: 159]
10 | 0.023 | cyclo([Bip(4'-COOH)][Ala(1-bicyclo(1.1.1)pentyl)][Phe(4-COOH)]G[cisHyp][Trp(βS-Me,4-F)][Aib]SW[d(αMeD)][Ala(pyrimidin-5-yl)]Q[Dab]G[dPro(4R-(4-pyridylmethyl))]) (ring closure inferred) [SEQ ID NO: 160]
11 | 0.05 | cyclo([Bip(4'-COOH)][4Pal][Phe(4-COOH)]G[Pro(cis-4-F)][Trp(βS-Me,4-F)][Aib]S[Trp4Az][Aib][Ala(pyrimidin-5-yl)]Q[Dab]G[dPro(4R-(4-pyridylmethyl))]) (ring closure inferred) [SEQ ID NO: 162]
12 | 0.045 | cyclo([Bip(4'-COOH)][Ala(1-bicyclo(1.1.1)pentyl)][Phe(4-COOH)]G[Pro(cis-4-F)][Trp(βS-Me,4-F)][Aib][hSer]W[αMeK][Ala(pyrimidin-5-yl)]Q[Dab]G[dPro(4R-Bzl(4-F))]) (ring closure inferred; not fully specified (bridges); printed as Bip4CO2H-AlaPent-Phe4COOH-G-Proc4F-SbMeW4F-Aib-hS-W-aMeK-PyrimAla-Q-Dab-G-dProc4Bn4F, cyclic (macrolactam)) [SEQ ID NO: 147]
13 | 0.019 | cyclo([Bip(4'-COOH)][4Pal][Phe(4-COOH)]G[cisHyp][Trp(βS-Me,4-F)][Aib]SW[d(αMeD)][Ala(pyrimidin-5-yl)]QSG[dPro(4R-(4-pyridylmethyl))]) (ring closure inferred) [SEQ ID NO: 161]
14 | 0.032 | cyclo([Bip(4'-COOH)][4Pal][Phe(4-COOH)]G[Pro(cis-4-F)][Trp(4-Cl)(βS-Me)][Aib]EW[Aib][Ala(pyrimidin-5-yl)]Q[Dab]G[dPro(4R-Bzl(4-F))]) (ring closure inferred; not fully specified (bridges); printed as Bip4CO2H-4Pal-Phe4COOH-G-Proc4F-sbMeW4Cl-Aib-E-W-Aib-PyrimAla-Q-Dab-G-dProc4Bn4F, cyclic (macrolactam)) [SEQ ID NO: 148]
15 | 0.016 | cyclo([Bip(4'-COOH)][Ala(1-bicyclo(1.1.1)pentyl)][Phe(4-COOH)]G[Pro(cis-4-F)][Trp(βS-Me,4-F)][Aib]SW[d(αMeS)][Ala(piperazin-1-yl)]Q[Dab]G[dPro(4R-Bzl(4-F))]) (ring closure inferred) [SEQ ID NO: 171]
16 | 0.019 | cyclo([Bip(4'-COOH)][4Pal][Phe(4-COOH)]G[Pro(cis-4-F)][1Nal(3S-Me)][Aib]EW[Aib][Ala(pyrimidin-5-yl)]Q[Dab]G[dPro(3S-(4-Br-benzyl))]) (ring closure inferred) [SEQ ID NO: 153]
17 | 0.022 | cyclo([Bip(4'-COOH)][Ala(1-bicyclo(1.1.1)pentyl)][Phe(4-COOH)]G[Pro(cis-4-F)][Trp(βS-Me,4-F)][Aib]EW[αMeK][Ala(morpholin-4-yl)]Q[Dab]G[dPro(4R-Bzl(4-F))]) (ring closure inferred) [SEQ ID NO: 165]
18 | 0.022 | cyclo([Bip(4'-COOH)][4Pal][Phe(4-COOH)]G[Pro(cis-4-F)][Trp(βS-Me,4-F)][Aib]EW[Aib][Ala(pyrimidin-5-yl)]Q[Orn]G[dPro(3S-(4-Br-benzyl))]) (ring closure inferred) [SEQ ID NO: 151]
19 | 0.039 | cyclo([Bip(4'-COOH)][Ala(1-bicyclo(1.1.1)pentyl)][Phe(4-COOH)]G[Pro(cis-4-F)][Trp(βS-Me,4-F)][Aib]EW[αMeK][Ala(piperidin-4-yl)]Q[Dab]G[dPro(4R-Bzl(4-F))]) (ring closure inferred) [SEQ ID NO: 166]
20 | 0.031 | cyclo([Bip(4'-COOH)][4Pal][Phe(4-COOH)]G[Pro(cis-4-F)][Trp(βS-Me,4-F)][Aib]EW[Aib][Ala(pyrimidin-5-yl)]QKG[dPro(3S-(4-Br-benzyl))]) (ring closure inferred) [SEQ ID NO: 152]
21 | 0.024 | cyclo([Bip(4'-COOH)][4Pal][Phe(4-COOH)]G[Pro(cis-4-F)][1Nal(3S-Me)][Aib]EW[Aib][Ala(pyrimidin-5-yl)]Q[Dab]G[dPro(4R-Bzl(4-F))]) (ring closure inferred; not fully specified (bridges); printed as Bip4CO2H-4Pal-Phe4COOH-G-Proc4F-sbMe1Nal-Aib-E-W-Aib-PyrimAla-Q-Dab-G-dProc4Bn4F, cyclic (macrolactam)) [SEQ ID NO: 149]
22 | 0.013 | cyclo([Bip(4'-COOH)][Ala(1-bicyclo(1.1.1)pentyl)][Phe(4-COOH)]G[Pro(cis-4-F)][Trp(βS-Me,4-F)][Aib]SW[d(αMeD)][Ala(pyrimidin-5-yl)]QSG[dPro(4R-(4-pyridylmethyl))]) (ring closure inferred) [SEQ ID NO: 158]
23 | 0.019 | cyclo([Bip(4'-COOH)][Ala(1-bicyclo(1.1.1)pentyl)][Phe(4-COOH)]G[Pro(cis-4-F)][Trp(βS-Me,4-F)][Aib]SW[Aib][Ala(piperidin-4-yl)]Q[Dab]G[dPro(4R-Bzl(4-F))]) (ring closure inferred) [SEQ ID NO: 169]
24 | 0.015 | cyclo([Bip(4'-COOH)][Ala(1-bicyclo(1.1.1)pentyl)][Phe(4-COOH)]G[Pro(cis-4-F)][Trp(βS-Me,4-F)][Aib]SW[d(αMeS)][Ala(morpholin-4-yl)]Q[Dab]G[dPro(4R-Bzl(4-F))]) (ring closure inferred) [SEQ ID NO: 170]
25 | 0.015 | cyclo([Bip(4'-COOH)][4Pal][Phe(4-COOH)]G[Pro(cis-4-F)][Trp(βS-Me,4-F)][Aib]SW[d(αMeD)][Ala(pyrimidin-5-yl)]QSG[dPro(4R-(4-pyridylmethyl))]) (ring closure inferred) [SEQ ID NO: 156]
